Patent publication US20150344570A1 (published 2015)

T1: FcγRIIa R (human, UniProt P12318 34-217)
T1 construct: extracellular domain; also called FcgRIIa R type; 2aR
T1 sequence (looked up): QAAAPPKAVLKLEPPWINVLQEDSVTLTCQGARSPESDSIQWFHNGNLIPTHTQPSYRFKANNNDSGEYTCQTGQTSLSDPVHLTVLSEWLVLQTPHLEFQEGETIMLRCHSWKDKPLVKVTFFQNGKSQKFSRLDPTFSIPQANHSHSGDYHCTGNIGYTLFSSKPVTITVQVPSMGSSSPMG

T2: FcγRIIb (human, UniProt P31994 43-217)
T2 construct: extracellular domain; also called FcgRIIb; 2b
T2 sequence (looked up): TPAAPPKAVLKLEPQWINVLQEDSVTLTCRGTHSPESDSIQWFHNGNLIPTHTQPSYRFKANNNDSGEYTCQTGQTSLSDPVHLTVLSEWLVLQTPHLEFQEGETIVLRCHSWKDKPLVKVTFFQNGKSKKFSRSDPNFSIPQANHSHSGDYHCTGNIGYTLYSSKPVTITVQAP


Key:
[1] = target: T3, FcγRIa (human, UniProt P12314 16-292); experiment: ratio of He/Con_1a to He/Con_2b (FcγRIa over FcγRIIb), SPR
T3 construct: extracellular domain; also called FcgRI; CD64
Procedure: (§1) The heterodimerized antibodies He Abs in which one of the H chains was introduced with an alteration were assayed for their binding activities to each activating FcγR and inhibitory FcγR according to the method described in Example 4. […] The activating FcγRs in FIGS. 26, 27, 28, and 29 are FcγRIa, FcγRIIa (R), FcγRIIa (H), and FcγRIIIa, respectively.
(§2) Analysis of interaction between objective antibody and the FcγR was carried out using Biacore T100 (GE Healthcare). HBS-EP+ (GE Healthcare) was used as the running buffer, and the measurement temperature was set to 25° C. Chips produced by immobilizing the antigen peptide by the amine coupling method to a Series S Sencor Chip CM5 (GE Healthcare), or alternatively, chips produced by allowing preliminarily biotinylated antigen peptides to interact with and immobilize onto a Series S Sensor Chip SA (certified) (GE Healthcare) were used. Antibodies of interest were captured onto an antigen peptide-immobilized chip, and allowed to interact to each FcγR diluted with running buffer. To regenerate and repeatedly use the chip, the antibodies captured on the chip were washed off by reacting 10 mM glycine-HCl, pH 1.5.
T3 sequence (P12314 16-292): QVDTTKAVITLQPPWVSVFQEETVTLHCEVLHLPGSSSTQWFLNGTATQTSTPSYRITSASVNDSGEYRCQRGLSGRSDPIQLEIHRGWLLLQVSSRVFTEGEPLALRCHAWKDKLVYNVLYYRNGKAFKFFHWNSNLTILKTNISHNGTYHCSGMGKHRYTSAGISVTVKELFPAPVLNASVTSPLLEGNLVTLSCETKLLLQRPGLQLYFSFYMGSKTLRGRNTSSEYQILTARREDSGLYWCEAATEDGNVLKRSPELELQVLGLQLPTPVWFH

[2] = target: T3, FcγRIa; experiment: SPR (Biacore), captured antibody, soluble FcγR; relative to GpH7-A5/GpH7-B3/GpL16-k0 = 100
Procedure: as §1, §2

[3] = target: T1, FcγRIIa R; experiment: SPR (Biacore); He/Con_2aR divided by He/Con_2b (FcγRIIa R over FcγRIIb)
[4] = target: T1, FcγRIIa R; experiment: SPR (Biacore), captured antibody, FcγR as analyte; relative binding, control GpH7-A5/GpH7-B3/GpL16-k0 = 100
Procedure: as §1, §2

[5] = target: T2, FcγRIIb; experiment: as above
Procedure: as §1, §2

[6] = target: T4, FcγRIa (human, UniProt P12314 16-292); experiment: SPR (Biacore), relative binding; control HeCon Ab GpH7-A5/GpH7-B3/GpL16-k0
T4 construct: extracellular domain; also called FcgRI; FcgRIa; not shown: His tag attached to the C terminus
T4 sequence (P12314 16-292): as above

He_1a/2b (Ia/IIb) [1]	He/Con_1a [2]	He_2aR/2b (IIaR/IIb) [3]	He/Con_2aR [4]	He/Con_2b [5]	He/Con_1a [6]	Binder
10.5	79.2 % of control					GpH7-A5/GpH7-B3 variant L328_11K/GpL16-k0 (antibody, human IgG1, kappa, He Ab; mutation in the GpH7-B3 chain only; also called He Ab) heavy 1: not shown heavy 2: not shown light: DIVMTQSPLSLPVTPGEPASISCQASESLVHSNRNTYLHWYLQKPGQSPQLLIYKVSNRFSGVPDRFSGSGSGTDFTLKISRVEAEDVGVYYCSQNTHVPPTFGQGTKVEIERTVAAPSVFIFPPSDEQLKSGTASVVCLLNNFYPREAKVQWKVDNALQSGNSQESVTEQDSKDSTYSLSSTLTLSKADYEKHKVYACEVTHQGLSSPVTKSFNRGEC
		1.27 ratio	65.3 control = 100	51.5 control = 100		GpH7-A5/GpH7-B3 variant E269_01G/GpL16-k0 (antibody, human IgG1, kappa, heterodimerized anti-glypican-3 IgG1; alteration in one H chain only; also called He Ab) heavy 1: not shown heavy 2: not shown light: DIVMTQSPLSLPVTPGEPASISCQASESLVHSNRNTYLHWYLQKPGQSPQLLIYKVSNRFSGVPDRFSGSGSGTDFTLKISRVEAEDVGVYYCSQNTHVPPTFGQGTKVEIERTVAAPSVFIFPPSDEQLKSGTASVVCLLNNFYPREAKVQWKVDNALQSGNSQESVTEQDSKDSTYSLSSTLTLSKADYEKHKVYACEVTHQGLSSPVTKSFNRGEC
					108 % of control (=100)	GpH7-A5/GpH7-B3 variant Y300_07I/GpL16-k0 (antibody, human IgG1, kappa, Alteration in one H chain only; also called He Ab Y300_07I) heavy 1: not shown heavy 2: not shown light: DIVMTQSPLSLPVTPGEPASISCQASESLVHSNRNTYLHWYLQKPGQSPQLLIYKVSNRFSGVPDRFSGSGSGTDFTLKISRVEAEDVGVYYCSQNTHVPPTFGQGTKVEIERTVAAPSVFIFPPSDEQLKSGTASVVCLLNNFYPREAKVQWKVDNALQSGNSQESVTEQDSKDSTYSLSSTLTLSKADYEKHKVYACEVTHQGLSSPVTKSFNRGEC
		1.3 ratio	58.8 control = 100	45.1 control = 100		GpH7-A5/GpH7-B3 variant E269_03V/GpL16-k0 (antibody, human IgG1, kappa, heterodimerized anti-glypican-3 IgG1; alteration in one H chain only; also called He Ab) heavy 1: not shown heavy 2: not shown light: DIVMTQSPLSLPVTPGEPASISCQASESLVHSNRNTYLHWYLQKPGQSPQLLIYKVSNRFSGVPDRFSGSGSGTDFTLKISRVEAEDVGVYYCSQNTHVPPTFGQGTKVEIERTVAAPSVFIFPPSDEQLKSGTASVVCLLNNFYPREAKVQWKVDNALQSGNSQESVTEQDSKDSTYSLSSTLTLSKADYEKHKVYACEVTHQGLSSPVTKSFNRGEC
		1.61 ratio	25.8 control = 100	16 control = 100		GpH7-A5/GpH7-B3 variant D265_14T/GpL16-k0 (antibody, human IgG1, kappa, heterodimerized anti-glypican-3 IgG1; alteration in one H chain only; also called He Ab) heavy 1: not shown heavy 2: not shown light: DIVMTQSPLSLPVTPGEPASISCQASESLVHSNRNTYLHWYLQKPGQSPQLLIYKVSNRFSGVPDRFSGSGSGTDFTLKISRVEAEDVGVYYCSQNTHVPPTFGQGTKVEIERTVAAPSVFIFPPSDEQLKSGTASVVCLLNNFYPREAKVQWKVDNALQSGNSQESVTEQDSKDSTYSLSSTLTLSKADYEKHKVYACEVTHQGLSSPVTKSFNRGEC
		1.81 ratio	20.5 control = 100	11.3 control = 100		GpH7-A5/GpH7-B3 variant D265_13S/GpL16-k0 (antibody, human IgG1, kappa, heterodimerized anti-glypican-3 IgG1; alteration in one H chain only; also called He Ab) heavy 1: not shown heavy 2: not shown light: DIVMTQSPLSLPVTPGEPASISCQASESLVHSNRNTYLHWYLQKPGQSPQLLIYKVSNRFSGVPDRFSGSGSGTDFTLKISRVEAEDVGVYYCSQNTHVPPTFGQGTKVEIERTVAAPSVFIFPPSDEQLKSGTASVVCLLNNFYPREAKVQWKVDNALQSGNSQESVTEQDSKDSTYSLSSTLTLSKADYEKHKVYACEVTHQGLSSPVTKSFNRGEC
8.51	78.6 % of control					GpH7-A5/GpH7-B3 variant L328_12R/GpL16-k0 (antibody, human IgG1, kappa, He Ab; mutation in the GpH7-B3 chain only; also called He Ab) heavy 1: not shown heavy 2: not shown light: DIVMTQSPLSLPVTPGEPASISCQASESLVHSNRNTYLHWYLQKPGQSPQLLIYKVSNRFSGVPDRFSGSGSGTDFTLKISRVEAEDVGVYYCSQNTHVPPTFGQGTKVEIERTVAAPSVFIFPPSDEQLKSGTASVVCLLNNFYPREAKVQWKVDNALQSGNSQESVTEQDSKDSTYSLSSTLTLSKADYEKHKVYACEVTHQGLSSPVTKSFNRGEC
		2.26 ratio	33.7 control = 100	14.9 control = 100		GpH7-A5/GpH7-B3 variant D265_11K/GpL16-k0 (antibody, human IgG1, kappa, heterodimerized anti-glypican-3 IgG1; alteration in one H chain only; also called He Ab) heavy 1: not shown heavy 2: not shown light: DIVMTQSPLSLPVTPGEPASISCQASESLVHSNRNTYLHWYLQKPGQSPQLLIYKVSNRFSGVPDRFSGSGSGTDFTLKISRVEAEDVGVYYCSQNTHVPPTFGQGTKVEIERTVAAPSVFIFPPSDEQLKSGTASVVCLLNNFYPREAKVQWKVDNALQSGNSQESVTEQDSKDSTYSLSSTLTLSKADYEKHKVYACEVTHQGLSSPVTKSFNRGEC
		1.51 ratio	58 control = 100	38.3 control = 100		GpH7-A5/GpH7-B3 variant D265_16H/GpL16-k0 (antibody, human IgG1, kappa, heterodimerized anti-glypican-3 IgG1; alteration in one H chain only; also called He Ab) heavy 1: not shown heavy 2: not shown light: DIVMTQSPLSLPVTPGEPASISCQASESLVHSNRNTYLHWYLQKPGQSPQLLIYKVSNRFSGVPDRFSGSGSGTDFTLKISRVEAEDVGVYYCSQNTHVPPTFGQGTKVEIERTVAAPSVFIFPPSDEQLKSGTASVVCLLNNFYPREAKVQWKVDNALQSGNSQESVTEQDSKDSTYSLSSTLTLSKADYEKHKVYACEVTHQGLSSPVTKSFNRGEC
		1.31 ratio	65.3 control = 100	49.9 control = 100		GpH7-A5/GpH7-B3 variant E269_02A/GpL16-k0 (antibody, human IgG1, kappa, heterodimerized anti-glypican-3 IgG1; alteration in one H chain only; also called He Ab) heavy 1: not shown heavy 2: not shown light: DIVMTQSPLSLPVTPGEPASISCQASESLVHSNRNTYLHWYLQKPGQSPQLLIYKVSNRFSGVPDRFSGSGSGTDFTLKISRVEAEDVGVYYCSQNTHVPPTFGQGTKVEIERTVAAPSVFIFPPSDEQLKSGTASVVCLLNNFYPREAKVQWKVDNALQSGNSQESVTEQDSKDSTYSLSSTLTLSKADYEKHKVYACEVTHQGLSSPVTKSFNRGEC
		1.52 ratio	58.2 control = 100	38.2 control = 100		GpH7-A5/GpH7-B3 variant D265_10E/GpL16-k0 (antibody, human IgG1, kappa, heterodimerized anti-glypican-3 IgG1; alteration in one H chain only; also called He Ab) heavy 1: not shown heavy 2: not shown light: DIVMTQSPLSLPVTPGEPASISCQASESLVHSNRNTYLHWYLQKPGQSPQLLIYKVSNRFSGVPDRFSGSGSGTDFTLKISRVEAEDVGVYYCSQNTHVPPTFGQGTKVEIERTVAAPSVFIFPPSDEQLKSGTASVVCLLNNFYPREAKVQWKVDNALQSGNSQESVTEQDSKDSTYSLSSTLTLSKADYEKHKVYACEVTHQGLSSPVTKSFNRGEC
		2.15 ratio	32.2 control = 100	15 control = 100		GpH7-A5/GpH7-B3 variant D265_12R/GpL16-k0 (antibody, human IgG1, kappa, heterodimerized anti-glypican-3 IgG1; alteration in one H chain only; also called He Ab) heavy 1: not shown heavy 2: not shown light: DIVMTQSPLSLPVTPGEPASISCQASESLVHSNRNTYLHWYLQKPGQSPQLLIYKVSNRFSGVPDRFSGSGSGTDFTLKISRVEAEDVGVYYCSQNTHVPPTFGQGTKVEIERTVAAPSVFIFPPSDEQLKSGTASVVCLLNNFYPREAKVQWKVDNALQSGNSQESVTEQDSKDSTYSLSSTLTLSKADYEKHKVYACEVTHQGLSSPVTKSFNRGEC
					111 % of control (=100)	GpH7-A5/GpH7-B3 variant Y300_16H/GpL16-k0 (antibody, human IgG1, kappa, Alteration in one H chain only; also called He Ab Y300_16H) heavy 1: not shown heavy 2: not shown light: DIVMTQSPLSLPVTPGEPASISCQASESLVHSNRNTYLHWYLQKPGQSPQLLIYKVSNRFSGVPDRFSGSGSGTDFTLKISRVEAEDVGVYYCSQNTHVPPTFGQGTKVEIERTVAAPSVFIFPPSDEQLKSGTASVVCLLNNFYPREAKVQWKVDNALQSGNSQESVTEQDSKDSTYSLSSTLTLSKADYEKHKVYACEVTHQGLSSPVTKSFNRGEC
		1.64 ratio	54.8 control = 100	33.4 control = 100		GpH7-A5/GpH7-B3 variant D265_19Q/GpL16-k0 (antibody, human IgG1, kappa, heterodimerized anti-glypican-3 IgG1; alteration in one H chain only; also called He Ab) heavy 1: not shown heavy 2: not shown light: DIVMTQSPLSLPVTPGEPASISCQASESLVHSNRNTYLHWYLQKPGQSPQLLIYKVSNRFSGVPDRFSGSGSGTDFTLKISRVEAEDVGVYYCSQNTHVPPTFGQGTKVEIERTVAAPSVFIFPPSDEQLKSGTASVVCLLNNFYPREAKVQWKVDNALQSGNSQESVTEQDSKDSTYSLSSTLTLSKADYEKHKVYACEVTHQGLSSPVTKSFNRGEC
		2.02 ratio	12.4 control = 100	6.1 control = 100		GpH7-A5/GpH7-B3 variant D265_18N/GpL16-k0 (antibody, human IgG1, kappa, heterodimerized anti-glypican-3 IgG1; alteration in one H chain only; also called He Ab) heavy 1: not shown heavy 2: not shown light: DIVMTQSPLSLPVTPGEPASISCQASESLVHSNRNTYLHWYLQKPGQSPQLLIYKVSNRFSGVPDRFSGSGSGTDFTLKISRVEAEDVGVYYCSQNTHVPPTFGQGTKVEIERTVAAPSVFIFPPSDEQLKSGTASVVCLLNNFYPREAKVQWKVDNALQSGNSQESVTEQDSKDSTYSLSSTLTLSKADYEKHKVYACEVTHQGLSSPVTKSFNRGEC
